# According to US20230364000A1, “COMPOSITIONS COMPRISING COMBINATIONS OF COLLAGEN OR ELASTIN POLYPEPTIDES WITH ACTIVE INGREDIENTS AND METHODS OF USING SAME” (Geltor, Inc., priority 2020, published 2023):
# B1: SEQ ID NO: 16: truncated human collagen type 21 alpha 1 without the DsbA secretion tag, recombinantly expressed in E. coli (protein)
# chain: AGFPGLPGPAGEPGRHGKDGLMGSPGFKGEAGSPGAPGQDGTRGEPGIPGFPGNRGLMGQKGEIGPPGQQGKKGAPGMPGLMGSNGSPGQPGTPGSKGSKGEPGIQGMPGASGLKGEPGATGSPGEPGYMGLPGIQGKKGDKGNQGEKGIQGQKGENGRQGIPGQQGIQGHHGAKGERGEKGEPGVR
# Experiments:
# [1] = test system: facial skin; assay: Corneometer skin hydration, clinical study of Example 3; type: in vivo, human; parameters: key to Corneometer Mean Percent Improvement From BL mean: NI = No Improvement; conditions: 0.1% w/w topical formulation; for Corneometer Mean ± SD: n 14, baseline 42.45 ± 10.06
# Description: A clinical study using human subjects to determine the effects of a topical skincare product containing truncated human type 21 collagen (SEQ ID NO: 16) is performed. The research is performed according to U.S. and International standards of Good Clinical Practice (FDA and ICH guidelines) and applicable government regulations.
# A base formulation (control formulation) made of water, olive oil glycereth-8 esters, glycerin, coconut alkanes, hydroxyethyl acrylate/sodium acryloyldimethyl taurate copolymer, pentylene glycol, disodium EDTA, caprylyl glycol, chlorphenesin, phenoxyethanol is prepared. A formulation containing the truncated human type 21 collagen is prepared by adding sufficient collagen to prepare a topical formulation containing 0.1% w/w collagen.
# The corneometer CM 820 (Courage+Khazaka, Germany) measures the relative degree of hydration of the skin surface by applying an alternating current to the skin with a closely spaced pair of electrodes and measuring the capacitance. Changes in water content of the skin change the conductance of the capacitive circuit.
# The corneometer is able to detect slight changes in the hydration level reproducibly with a measurement time of only about one second. The measurement depth is small (approximately 10-20 μm of stratum corneum) which ensures assessment is not influenced by deeper skin layers.
# All subjects undergo corneometer measurements of their face at baseline, immediately post-initial-application, and at weeks 2, 4, and 8. Measurements will be taken in triplicate and averaged for each time point. Measurement location is recorded on a face map for assessment consistency at each time point.
# Improvements in skin hydration, firmness, and elasticity were statistically significant.
# [2] = test system: human primary fibroblasts; assay: Fibroblast collagen type I protein secretion (pro-collagen type I C-peptide ELISA); type: cell-based; conditions: 0.03%; 48 hours; compared with untreated cells or cells treated with retinol; FIG. 1
# Description: A series of in vitro experiments were conducted to assess the effects of a truncated human type 21 collagen on human skin fibroblasts and keratinocytes. In a first experiment, human primary fibroblasts were evaluated for collagen type I protein secretion. Fibroblasts were cultured with 0.03% of a polypeptide according to SEQ ID NO: 16 for 48 hours. Culture supernatants were analyzed by Enzyme Linked Immunosorbent Assay (ELISA) for pro-collagen type I C-peptide, which is a readout for total secreted collagen type I protein.
# [3] = test system: human primary keratinocytes; assay: IL-la ELISA in UVB-irradiated keratinocytes; type: cell-based; conditions: 40 mJ/cm^2 UVB, then 0.1% for 24 hours; compared to untreated UVB-irradiated keratinocytes; FIG. 3
# Description: Human primary keratinocytes were irradiated with 40 mJ/cm^2 UVB light, and then treated with 0.1% of a polypeptide of SEQ ID NO: 16 for 24 hours. Levels of the pro-inflammatory cytokines IL-la were determined by ELISA.
# [4] = Oxygen radical absorbance capacity (ORAC) assay, cell-free; type: biochemical; conditions: 0.1% solution
# Description: The antioxidant potential of a polypeptide of SEQ ID NO: 16 was assessed using the oxygen free radical absorbance capacity (ORAC) assay. The ORAC assay is a cell-free assay that uses a fluorescent readout to measure a product's antioxidant capacity. Data is reported in Trolox (Vitamin E) equivalents.
# A polypeptide of SEQ ID NO: 5 was also evaluated in the ORAC assay.
# An oxygen radical absorbance capacity (ORAC) assay was performed to analyze the anti-oxidative capacity of a polypeptide according to SEQ ID NO: 52. The ORAC assay is a cell-free assay that uses a fluorescent readout to measure anti-oxidative capacity. Data is reported in Trolox (Vitamin E) equivalents (TEs).
# [5] = test system: human primary keratinocytes; assay: MTT viability of UVB-irradiated keratinocytes, pre- and post-irradiation treatment; type: cell-based; conditions: 0.1% for 24 hours before and 24 hours after 40 mJ/cm^2 UVB; compared with UVB-irradiated keratinocytes without treatment; FIG. 5
# Description: To further assess the effects of treatment with a polypeptide of SEQ ID NO: 16 on UVB-irradiated keratinocytes, an experiment was performed with pre- and post-irradiation treatment. Human primary keratinocytes were pre-treated with 0.1% of a polypeptide of SEQ ID NO: 16 for 24 hours, irradiated with 40 mJ/cm^2 UVB light, and then treated again with 0.1% of a polypeptide of SEQ ID NO: 16 for an additional 24 hours. Cell viability was evaluated using the MTT metabolic colorimetric assay.
# [6] = test system: facial skin; assay: SIAscope facial skin collagen content, clinical study of Example 5; type: in vivo, human; conditions: topical facial serum 0.1%, n=15, FIG. 7
# Source text: In a clinical study (n=15 subjects), subjects used a topical facial serum containing 0.1% of a polypeptide of SEQ ID NO: 16 for 8 weeks, after using a protein-free base facial serum for a 1-week washout period. Topical application of a polypeptide of SEQ ID NO: 16 was associated with increased skin collagen content, as measured by a SIAscope.
# [7] = test system: Human full-thickness skin equivalents (MatTek Epiderm FT co-culture tissue models); assay: Type I collagen production in human full-thickness skin equivalents (pro-collagen type I C-peptide ELISA); type: cell-based; conditions: polypeptide 0.1% w/w, FIG. 18
# Description: Human full-thickness skin equivalents (MatTek Epiderm FT co-culture tissue models) which contain keratinocytes and fibroblasts were treated with a 0.1% w/w truncated human type 21 collagen polypeptide (having an amino acid sequence of SEQ ID NO: 16) (“C21”; FIG. […] Culture medium was changed every 2 days. On day 4, supernatant was collected and analyzed by enzyme-linked immunosorbent assay (ELISA) for pro-collagen type I C-peptide, which is a readout for total secreted collagen type I protein.
# [8] = test system: Human full-thickness skin equivalents (MatTek Epiderm FT co-culture tissue models); assay: Elastin production in human full-thickness skin equivalents (ELISA); type: cell-based; conditions: polypeptide 0.1% w/w, retinol (10, unit not given), ascorbic acid 2% w/w, FIG. 20
# Source text: The combination of the truncated human type 21 collagen polypeptide with retinol increased elastin production by 45% relative to untreated control. This appeared to be a synergistic effect as treatment with truncated human type 21 collagen polypeptide alone increased elastin production by 20% and treatment with retinol alone increased elastin production by 17%. The combination of the truncated human type 21 collagen polypeptide with ascorbic acid increased elastin production by 33% relative to untreated control. This appeared to be a synergistic effect as treatment with truncated human type 21 collagen polypeptide alone increased elastin production by 20% and treatment with ascorbic acid alone increased elastin production by 5%.
# [9] = test system: Human full-thickness skin equivalents (MatTek Epiderm FT co-culture tissue models); assay: Type III collagen production in human full-thickness skin equivalents (pro-collagen type III N-peptide ELISA); type: cell-based; conditions: polypeptide 0.1% w/w, ascorbic acid 2% w/w, FIG. 21
molecule,measurement,setting,value
B1,Corneometer Mean Percent Improvement From BL mean,[1]; Immediate,36.69%
same,Corneometer Percent of Subjects Showing Improvement From BL,[1]; Immediate,100%
same,Corneometer Mean ± SD,"[1]; Immediate, P-value <0.001*",57.22 ± 12.47
same,Corneometer Mean Percent Improvement From BL mean,[1]; Week 2,NI
same,Corneometer Percent of Subjects Showing Improvement From BL,[1]; Week 2,14.3%
same,Corneometer Mean ± SD,"[1]; Week 2, P-value 0.001** (significant worsening)",35.71 ± 10.77
same,secreted collagen type I (pro-collagen type I C-peptide),[2],higher levels
same,levels of IL-la,[3],lower levels
same,"antioxidant properties, Trolox (Vitamin E) equivalents",[4],190 μM Trolox
same,cell viability (MTT),[5],higher cell viability
same,skin collagen content,[6]; 2 weeks vs baseline,increased
same,skin collagen content,[6]; 8 weeks vs baseline,increased
same,increase of type I collagen production relative to the untreated control,"[7]; day 4 supernatant, hyaluronic acid 0.1% w/w (low molecular weight, 15-40 kDa)",64%
same,production of type I collagen as compared to untreated cells,"[7]; each agent alone, day 4, retinol (10, unit not given), ascorbic acid 2% w/w, hyaluronic acid 0.1% w/w",increased production
same,increase of elastin production relative to untreated control,[8]; day 2 supernatant,20%
same,production of elastin as compared to untreated cells,"[8]; each agent alone, day 2, hyaluronic acid 0.1% w/w",increased production
same,increase of type III collagen production relative to untreated control,[9]; day 2 supernatant,82%
same,production of type III collagen as compared to untreated cells,"[9]; each agent alone, day 2, retinol (10, unit not given), hyaluronic acid 0.1% w/w",increased production
